Patent publication US12611443B2, “Methods and compositions related to therapeutic peptides for cancer therapy” (THE UNIVERSITY OF CHICAGO, priority 2018, dated 2026)

Experiments:
MDA-MB-231 cells = assay: Cell viability of MDA-MB-231 cells treated with purified ELANE or ECP; type: cell-based, human
Method: (§1) In vitro cell viability assays. […] Luminescence was measured using a Victor X3 luminometer (PerkinElmer).

ELANE = molecular target: T1, ELANE (Homo sapiens, UniProt P08246); assay: ELANE activity assay with ECP (chromogenic substrate); type: biochemical; conditions: type II allosteric activator
T1 sequence (P08246 30-267): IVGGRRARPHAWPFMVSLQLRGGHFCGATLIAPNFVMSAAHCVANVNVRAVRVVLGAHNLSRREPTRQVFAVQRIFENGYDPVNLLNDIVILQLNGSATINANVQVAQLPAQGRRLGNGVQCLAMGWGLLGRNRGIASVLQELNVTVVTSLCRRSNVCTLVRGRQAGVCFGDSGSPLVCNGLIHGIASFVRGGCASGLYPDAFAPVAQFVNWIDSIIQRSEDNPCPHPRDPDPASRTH
Method: ELANE activity assays. Catalytic activity was measured using the chromogenic substrate N-Methoxysuccinyl-Ala-Ala-Pro-Val p-nitroanilide (Sigma, 100 μg/mL) according to manufacturer's protocol. Absorbance was measured at 405 nm using an accuSkan GO UV/Vis microplate spectrophotometer (ThermoFisher Scientific). For inactivation, ELANE was incubated with PMSF (1 mM, Sigma) or A1AT (42 nM, Athens Research & Technology) for 2 h. Residual PMSF was eliminated with a PD-10 desalting column (GE Healthcare Life). To monitor the effect of ECP on ELANE activity, ELANE (10 nM) was incubated with various doses of ECP (0-180 nM) at various substrate concentrations (0-1.7 mM).
Statistics. With the exception of proteomics studies, statistical significance was determined with the Student's two-tailed, unpaired t-test. Linear regression, Michaelis-Menten, and hyperbolic curve fittings were performed using Prism v.7 software.

[1] = system: Human monocyte-derived macrophages (HMDMs); assay: Cell viability of HMDMs treated with purified ELANE or ECP; type: cell-based
Method: Primary human blood-derived cells.
as §1

B1: ECP: eosinophil cationic protein, a pore-forming protein (protein)
chain: RPPQFTRAQWFAIQHISLNPPRCTIAMRAINNYRWRCKNQNTFLRTTFANVVNVCGNQSIRCPHNRTLNNCHRSRFRVPLLHCDLINPGAQNISNCTYADRPGRRFYVVACDNRDPRDSPRYPVVPVHLDTTI
B1 was tested, and the “killing at concentration present in PMN media, alone” value (MDA-MB-231 cells; ECP 0.05 μg/mL) was “could not kill these cells alone”, the “effect on killing capability of ELANE” value (MDA-MB-231 cells; ELANE 0.25 μg/mL and ECP 0.05 μg/mL) was “significantly enhanced the selective killing capability of ELANE” and the “cell viability, purified protein” value (MDA-MB-231 cells; MDA-MB-231) was “killed MDA-MB-231 cells only at doses that were also toxic to HMDMs”. The “increase of ELANE catalytic turnover (kcat)” value (ELANE) was about 12 fold and the “cell viability, purified protein” value [1] was “toxic to HMDMs”.
